Measurements reported in patent publication US20220025010A1 (ANTAG THERAPEUTICS, published 2022).
*1 amine or outer side, *2 acyl side, *3 side chain or, on linkers, in order; H or OH if unused. Where no end group is shown, it is not given here. Side-chain parts run from the residue outwards. [ ]: non-standard residue; d: D form. The star is where a group is joined. C18 diacid = O=C(O)CCCCCCCCCCCCCCCCC(=O)*; C16 diacid = O=C(O)CCCCCCCCCCCCCCC(=O)*; γGlu = O=C(O)[C@H](CCC(=O)[*:2])N[*:1]; pGlu = O=C1CC[C@@H](C(=O)O)N1; AEEA = NCCOCCOCC(=O)O

T1: human GIP receptor (human, UniProt P48546 22-466)
T1 sequence (looked up): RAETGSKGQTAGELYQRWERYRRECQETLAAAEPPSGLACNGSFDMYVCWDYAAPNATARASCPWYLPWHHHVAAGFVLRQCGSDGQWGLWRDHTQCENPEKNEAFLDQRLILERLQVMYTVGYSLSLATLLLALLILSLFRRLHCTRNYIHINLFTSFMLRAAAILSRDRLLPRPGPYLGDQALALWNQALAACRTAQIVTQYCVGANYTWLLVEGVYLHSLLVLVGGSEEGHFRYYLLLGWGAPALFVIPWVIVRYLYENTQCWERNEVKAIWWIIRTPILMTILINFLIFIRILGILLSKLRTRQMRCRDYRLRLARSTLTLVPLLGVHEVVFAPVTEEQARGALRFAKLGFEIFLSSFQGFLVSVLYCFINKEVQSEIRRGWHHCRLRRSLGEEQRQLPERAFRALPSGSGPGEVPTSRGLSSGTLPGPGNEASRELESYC

B1: AT496 (peptide)
peptide: GGTFISDYSIAMDRIK(C16 diacid)QQDFVNWLLAQR-NH2
modifications: N-terminus assumed
SMILES: CC[C@H](C)[C@H](NC(=O)[C@H](CO)NC(=O)[C@H](Cc1ccc(O)cc1)NC(=O)[C@H](CC(=O)O)NC(=O)[C@H](CO)NC(=O)[C@@H](NC(=O)[C@H](Cc1ccccc1)NC(=O)[C@@H](NC(=O)CNC(=O)CN)[C@@H](C)O)[C@@H](C)CC)C(=O)N[C@@H](C)C(=O)N[C@@H](CCSC)C(=O)N[C@@H](CC(=O)O)C(=O)N[C@@H](CCCNC(=N)N)C(=O)N[C@H](C(=O)N[C@@H](CCCCNC(=O)CCCCCCCCCCCCCCC(=O)O)C(=O)N[C@@H](CCC(N)=O)C(=O)N[C@@H](CCC(N)=O)C(=O)N[C@@H](CC(=O)O)C(=O)N[C@@H](Cc1ccccc1)C(=O)N[C@H](C(=O)N[C@@H](CC(N)=O)C(=O)N[C@@H](Cc1c[nH]c2ccccc12)C(=O)N[C@@H](CC(C)C)C(=O)N[C@@H](CC(C)C)C(=O)N[C@@H](C)C(=O)N[C@@H](CCC(N)=O)C(=O)N[C@@H](CCCNC(=N)N)C(N)=O)C(C)C)[C@@H](C)CC
B2: AT498 (peptide)
peptide: SGTFISDYSIAMDRIK(C16 diacid)QQDFVNWLLAQR-NH2
modifications: N-terminus assumed
SMILES: CC[C@H](C)[C@H](NC(=O)[C@H](CO)NC(=O)[C@H](Cc1ccc(O)cc1)NC(=O)[C@H](CC(=O)O)NC(=O)[C@H](CO)NC(=O)[C@@H](NC(=O)[C@H](Cc1ccccc1)NC(=O)[C@@H](NC(=O)CNC(=O)[C@@H](N)CO)[C@@H](C)O)[C@@H](C)CC)C(=O)N[C@@H](C)C(=O)N[C@@H](CCSC)C(=O)N[C@@H](CC(=O)O)C(=O)N[C@@H](CCCNC(=N)N)C(=O)N[C@H](C(=O)N[C@@H](CCCCNC(=O)CCCCCCCCCCCCCCC(=O)O)C(=O)N[C@@H](CCC(N)=O)C(=O)N[C@@H](CCC(N)=O)C(=O)N[C@@H](CC(=O)O)C(=O)N[C@@H](Cc1ccccc1)C(=O)N[C@H](C(=O)N[C@@H](CC(N)=O)C(=O)N[C@@H](Cc1c[nH]c2ccccc12)C(=O)N[C@@H](CC(C)C)C(=O)N[C@@H](CC(C)C)C(=O)N[C@@H](C)C(=O)N[C@@H](CCC(N)=O)C(=O)N[C@@H](CCCNC(=N)N)C(N)=O)C(C)C)[C@@H](C)CC

The binders below were run against T1, human GIP receptor (assay: cell-based or functional assay).

Binder | CisBio cAMP agonism % Efficacy | CisBio cAMP antagonism % inhib | CisBio cAMP antagonism IC50 | CisBio cAMP antagonism pIC50 | DiscoveRx cAMP antagonism % inhib | DiscoveRx cAMP antagonism IC50 | DiscoveRx cAMP antagonism log IC50 | DiscoveRx cAMP agonism Emax
B1 | 0% | 100% | 39.8 nM | 7.4 | 100% | 12 nM | -7.9 log M | 
[pGlu]GTFISDYSIAMDRIK([AEEA-AEEA-γGlu-C18 diacid])QQDFVNWLLAQR-NH2 [AT381] | 5% | 74% | 13.6 nM | 7.9 | 100% | 38 nM | -7.4 log M | 
[pGlu]GTFISDYSIAMDRIK(C18 diacid)QQDFVNWLLAQR-NH2 [AT391] | 0% | 95% | 271 nM | 6.6 | 100% | 10 nM | -8 log M | 
B2 |  |  |  | 7.9 |  |  | -7.7 log M | 6
